Experimental data reported in US20110059095A1 (Regeneron, published 2011).

What was measured:
[1] = biological target: T1, C-terminal biotinylated human PAR-2 peptide SEQ ID NO:882 (Thr-45 to Ala) (human, not fully specified; C-terminal biotin (K-B)); test: alanine scan by biolayer interferometry (Octet Red): C-terminal biotin peptide on streptavidin tips, 200 nM antibody; T1/2 relative to wild-type peptide SEQ ID NO:871
T1 construct: alanine-scan mutant
T1 peptide: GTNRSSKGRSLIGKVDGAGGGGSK
Description: (§1) In order to more particularly identify the amino acids of PAR-2 with which the PAR-2 antibodies interact, an alanine scanning study was carried out using peptides comprising the activating PAR-2 protease cleavage site.
(§2) The ability of each peptide mutant to bind to PAR-2 antibodies was measured using biolayer interferometry (Octet Red; ForteBio). Each peptide (2.5 μg/ml) was captured on streptavidin coated biosensor tips (Octet SA sensor) for 10 seconds. To measure binding and dissociation between each peptide and PAR-2 antibody, the peptide-coated biosensors were contacted with 200 nM solutions of PAR-2 antibodies for 5 minutes (binding) followed by transfer to buffer with no antibody for 10 min (dissociation). […] The results are expressed as percent binding and percent T_{1/2} relative to WT peptide (Tables 24-28).

[2] = biological target: T2, C-terminal biotinylated human PAR-2 peptide SEQ ID NO:877 (Gly-40 to Ala) (human, not fully specified; C-terminal biotin (K-B)); test: as above
T2 construct: alanine-scan mutant
T2 peptide: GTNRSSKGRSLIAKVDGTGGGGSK
Description: as §1, §2

[3] = biological target: T3, C-terminal biotinylated human PAR-2 peptide SEQ ID NO:878 (Lys-41 to Ala) (human, not fully specified; C-terminal biotin (K-B)); test: as above
T3 construct: alanine-scan mutant
T3 peptide: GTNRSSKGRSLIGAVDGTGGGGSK
Description: as §1, §2

[4] = biological target: T4, C-terminal biotinylated human PAR-2 14-mer peptide SEQ ID NO:886 (Asp-43 to Ala) (human, not fully specified; C-terminal biotin (K-B)); test: BLI Exp2
T4 peptide: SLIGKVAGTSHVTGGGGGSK
Description: as §1, §2

[5] = biological target: T1, C-terminal biotinylated human PAR-2 …; test: BLI Exp2
Description: as §1, §2

[6] = biological target: T5, C-terminal biotinylated human PAR-2 14-mer peptide SEQ ID NO:884 (SLIGKVDGTSHVTG, wild-type) (human, not fully specified; C-terminal biotin (K-B)); test: BLI Exp2
T5 peptide: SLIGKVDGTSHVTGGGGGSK
Description: as §1, §2

[7] = biological target: T6, C-terminal biotinylated human PAR-2 14-mer peptide SEQ ID NO:885 (Val-42 to Ala) (human, not fully specified; C-terminal biotin (K-B)); test: BLI Exp2
T6 peptide: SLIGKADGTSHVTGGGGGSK
Description: as §1, §2

[8] = biological target: T7, C-terminal biotinylated human PAR-2 peptide SEQ ID NO:872 (Gly-35 to Ala) (human, not fully specified; C-terminal biotin (K-B)); test: BLI Exp2
T7 construct: alanine-scan mutant
T7 peptide: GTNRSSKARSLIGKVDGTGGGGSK
Description: as §1, §2

[9] = biological target: T8, C-terminal biotinylated human PAR-2 peptide SEQ ID NO:879 (Val-42 to Ala) (human, not fully specified; C-terminal biotin (K-B)); test: BLI Exp2
T8 construct: alanine-scan mutant
T8 peptide: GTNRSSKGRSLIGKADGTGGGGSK
Description: as §1, §2

[10] = biological target: T9, C-terminal biotinylated human PAR-2 peptide SEQ ID NO:874 (Ser-37 to Ala) (human, not fully specified; C-terminal biotin (K-B)); test: BLI Exp2
T9 construct: alanine-scan mutant
T9 peptide: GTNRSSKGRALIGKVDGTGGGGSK
Description: as §1, §2

[11] = biological target: T10, C-terminal biotinylated human PAR-2 14-mer peptide SEQ ID NO:887 (Val-42 and Asp-43 to Ala) (human, not fully specified; C-terminal biotin (K-B)); test: BLI Exp2
T10 peptide: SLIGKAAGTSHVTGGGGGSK
Description: as §1, §2

[12] = biological target: T11, C-terminal biotinylated human PAR-2 peptide SEQ ID NO:876 (Ile-39 to Ala) (human, not fully specified; C-terminal biotin (K-B)); test: BLI Exp2
T11 construct: alanine-scan mutant
T11 peptide: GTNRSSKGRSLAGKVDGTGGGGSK
Description: as §1, §2

[13] = biological target: T2, C-terminal biotinylated human PAR-2 …; test: BLI Exp2
Description: as §1, §2

[14] = biological target: T12, C-terminal biotinylated human PAR-2 peptide SEQ ID NO:881 (Gly-44 to Ala) (human, not fully specified; C-terminal biotin (K-B)); test: BLI Exp2
T12 construct: alanine-scan mutant
T12 peptide: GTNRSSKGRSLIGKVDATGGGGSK
Description: as §1, §2

[15] = biological target: T13, C-terminal biotinylated human PAR-2 peptide SEQ ID NO:873 (Arg-36 to Ala) (human, not fully specified; C-terminal biotin (K-B)); test: BLI Exp2
T13 construct: alanine-scan mutant
T13 peptide: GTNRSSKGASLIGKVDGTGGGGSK
Description: as §1, §2

[16] = biological target: T14, C-terminal biotinylated human PAR-2 peptide SEQ ID NO:880 (Asp-43 to Ala) (human, not fully specified; C-terminal biotin (K-B)); test: BLI Exp2
T14 construct: alanine-scan mutant
T14 peptide: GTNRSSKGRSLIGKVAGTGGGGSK
Description: as §1, §2

[17] = biological target: T3, C-terminal biotinylated human PAR-2 …; test: BLI Exp2
Description: as §1, §2

[18] = biological target: T15, C-terminal biotinylated human PAR-2 peptide SEQ ID NO:871 (wild-type) (human, not fully specified; C-terminal biotin (K-B)); test: BLI Exp2
T15 construct: also called WT peptide
T15 peptide: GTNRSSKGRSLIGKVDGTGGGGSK
Description: as §1, §2

B1: H4H588N (antibody, human IgG4, V domains shown)
VH: EVQLLESGGGLVQPGGSLRLSCAASGFTFSSYAMTWVRQAPGKGLYWVSAISGGRGSAYYADSVKGRFTISRDNSKNTLYLQMNSLRAEDTAVYYCAKEGDSGYDLAYWGRGTLVTVSS
VL: DIQMTQSPSSLSASVGDRVTITCRARQGISNNLAWLQQKPGKAPKSLIYAASSLQSGIPSKFSGSGSGTYFTLTISSLQPEDFATYYCQQYKSSPLTFGGGTKVEIK
notes: also called H2M588N variable regions
[1]
  percent of T1/2 relative to wild-type peptide (average of duplicate experiments): 64%
[2]
  percent of T1/2 relative to wild-type peptide (average of duplicate experiments): 0.5%
[3]
  percent of T1/2 relative to wild-type peptide (average of duplicate experiments): 84%
[4]
  binding result: no binding (tested: 200 nM antibody)
[5]
  % Rel Binding: 121%
  % Rel T1/2: 33%
[6]
  % Rel Binding: 100%
  % Rel T1/2: 100%
[7]
  % Rel Binding: 83%
  % Rel T1/2: 0%
[8]
  % Rel Binding: 99%
  % Rel T1/2: 253%
[9]
  % Rel Binding: 52%
  % Rel T1/2: 0%
[10]
  % Rel Binding: 93%
  % Rel T1/2: 70%
[11]
  binding result: no binding (tested: 200 nM antibody)
[12]
  % Rel Binding: 85%
  % Rel T1/2: 8%
[13]
  % Rel Binding: 30%
  % Rel T1/2: 0%
[14]
  % Rel Binding: 67%
  % Rel T1/2: 1%
[15]
  % Rel Binding: 115%
  % Rel T1/2: 180%
[16]
  % Rel Binding: 8%
  % Rel T1/2: 5%
[17]
  % Rel Binding: 121%
  % Rel T1/2: 60%
[18]
  % Rel Binding: 100%
  % Rel T1/2: 100%

B2: H4H581P (antibody, human IgG4, V domains shown)
VH: QVQLVESGGGVVQPGRSLRLSCVASGFTFSRYGIHWVRQAPGKGLEWVIVISYDGINKYYADSVKGRFTISRDNSKNTVYLQMNSLRAEDTAVYYCAKGDFWSGYFDYWGQGTLVTVSS
VL: DIVMTQTPLSSPVTLGQPASISCRSSQSLVHSDGNTYLSWLHQRPGQPPRLLIYKISNRFSGVPDRFSGSGAGTDFTLQISRVEAEDVGIYYCMQATQFPTFGGGTKVEIK
notes: also called mAb H4H581P; H1H581P variable regions
[1]
  percent of T1/2 relative to wild-type peptide (average of duplicate experiments): 112%
[2]
  percent of T1/2 relative to wild-type peptide (average of duplicate experiments): 24%
[3]
  percent of T1/2 relative to wild-type peptide (average of duplicate experiments): 56%
[4]
  binding result: no binding (tested: 200 nM antibody)
[5]
  % Rel Binding: 91%
  % Rel T1/2: 94%
[6]
  % Rel Binding: 100%
  % Rel T1/2: 100%
[7]
  % Rel Binding: 19%
  % Rel T1/2: 0%
[8]
  % Rel Binding: 97%
  % Rel T1/2: 117%
[9]
  % Rel Binding: 46%
  % Rel T1/2: 1%
[10]
  % Rel Binding: 56%
  % Rel T1/2: 3%
[11]
  binding result: no binding (tested: 200 nM antibody)
[12]
  % Rel Binding: 14%
  % Rel T1/2: 0%
[13]
  % Rel Binding: 92%
  % Rel T1/2: 15%
[14]
  % Rel Binding: 102%
  % Rel T1/2: 124%
[15]
  % Rel Binding: 105%
  % Rel T1/2: 90%
[16]
  % Rel Binding: 5%
  % Rel T1/2: 4%
[17]
  % Rel Binding: 109%
  % Rel T1/2: 49%
[18]
  % Rel Binding: 100%
  % Rel T1/2: 100%
